# Laboratory results taken from US20220411517A1 (LEO PHARMA A S, published 2022).
# T1: human IL1RAcP domain 1 (AG-12335) (human)
# T1 construct: also called domain 1 of human IL-1RAcP
# T1 chain: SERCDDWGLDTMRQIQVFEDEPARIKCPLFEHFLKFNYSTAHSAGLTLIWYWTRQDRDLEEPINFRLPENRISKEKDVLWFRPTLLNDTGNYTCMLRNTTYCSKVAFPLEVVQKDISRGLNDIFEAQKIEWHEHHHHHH
# T2: human IL1RAcP domain 3 (AG-12127) (human)
# T2 construct: also called domain 3 of human IL-1RAcP
# T2 chain: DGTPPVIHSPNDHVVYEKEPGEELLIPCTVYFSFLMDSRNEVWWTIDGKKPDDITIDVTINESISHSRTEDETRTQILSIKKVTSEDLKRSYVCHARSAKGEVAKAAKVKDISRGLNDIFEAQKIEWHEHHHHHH
# Tests used:
# recombinant rat IL-1RAcP = recombinant rat IL-1RAcP (rat, UniProt Q63621 21-367, limits assumed); assay: ELISA (FIG. 1-3 cited)
# human IL-1RAcP on cells [1] = molecular target: T3, human IL-1RAcP on cells (human, UniProt Q9NPH3 21-570); assay: cell-based or functional assay
# [2] = molecular target: T4, cynomolgus IL-1RAcP on cells (cynomolgus, UniProt A0A2K5X5J5 21-570); assay: cell-based or functional assay
# [3] = molecular target: T5, hIL-1RAP(1-367)_F-chLys_Avi (human, biotinylated (Avi tag) in SPR and ELISA binning; unlabeled in SET); assay: SET, ratio of KD values
# T5 construct: also called human IL-1RAcP (AG-12210)
# [4] = molecular target: T6, cyIL-1RAP(1-367)_F-chLys_Avi (cynomolgus, biotinylated (Avi tag) in SPR; unlabeled in SET); assay: SET, ratio of KD values
# T6 construct: cynomolgus IL-1RAcP (21-367) is UniProt A0A2K5X5J5; also called cynomolgus IL-1RAcP (AG-12211)
# human IL-1RAcP on cells [5] = molecular target: T3, human IL-1RAcP on cells; assay: cell-based or functional assay; remark: listed apart in the source
# [6] = molecular target: T4, cynomolgus IL-1RAcP on cells; assay: cell-based or functional assay; remark: listed apart in the source
# [7] = molecular target: T7, mouse (AG-12212) IL-1RAcP (mouse, UniProt Q61730 21-367, limits assumed); assay: ELISA, Fc-capture mode of the IgGs (FIG. 1-3)
# T7 construct: Recombinant tagged antigen; also called recombinant mouse IL-1RAcP; mouse IL-1RAP
# From the text: (§1) Bound antibodies were detected using respective alkaline-phosphatase (AP) coupled secondary antibodies in combination with ‘AttoPhos’ fluorescence substrate. Multiple washing steps have been performed in between individual assay steps.
# [8] = molecular target: T5, hIL-1RAP(1-367)_F-chLys_Avi; assay: solution equilibrium titration (SET), ECL read-out, IgG
# Method: (§2) MSD SulfoTAG™ NHS-Ester (Meso Scale Diagnostics) according to the manufacturer's instructions. […] Serial dilutions of unlabeled antigen were prepared, starting with a concentration at least 10 times higher than the expected KD. Wells without antigen were used to determine Bₘₐₓ values;
# (§3) wells containing only assay buffer were used to determine background. […] MSD plates were coated with antigen on standard plates (30 μL per well). After washing the plate with PBS with 0.05% Tween 20, the equilibrated samples were transferred to the plates and incubated for 20 min. […] After washing the MSD plate and adding 30 μL/well MSD Read Buffer T with surfactant, electrochemiluminescence signals were detected using a MESO SECTOR S 600 (Meso Scale Diagnostics).
# (§4) The data was evaluated with XLfit (IDBS) software applying customized fitting models.
# [9] = molecular target: T6, cyIL-1RAP(1-367)_F-chLys_Avi; assay: as above
# Method: as §2, §3, §4
# human IL-1RAcP on cells [10] = molecular target: T3, human IL-1RAcP on cells; assay: flow cytometry on primary human dermal fibroblasts expressing endogenous IL-1RAcP (FIG. 4-1)
# Method: Cell suspensions were transferred into microtiter plates and antibody samples were added followed by subsequent incubation of plates at 4° C. for 3 hours. Following incubation, cells were washed several time with FACS buffer.
# [11] = molecular target: T1, human IL1RAcP domain 1 (AG-12335); assay: ELISA on directly coated human IL-1RAcP domain 1 (AG-12335), IgG titrated, S/BG
# Method: All were assessed with direct coating of the antigen. […] An anti-His antibody served as positive control.
# [12] = molecular target: T2, human IL1RAcP domain 3 (AG-12127); assay: ELISA on directly coated human IL-1RAcP domain 3 (AG-12127), IgG titrated, S/BG
# [13] = molecular target: T8, human IL1RAcP domain 1/2 (AG-12337) (human); assay: ELISA on directly coated human IL-1RAcP domain 1/2 (AG-12337), IgG1f_AEASS titrated, S/BG
# T8 construct: also called domain 1/2 of human IL-1RAcP
# [14] = molecular target: T5, hIL-1RAP(1-367)_F-chLys_Avi; assay: SPR (Biacore), biotinylated antigen captured, FabCys-AviHis as analyte, 1:1 fit
# Method: (§5) Approximately 3000 RU capture reagent was bound. This surface was used to load biotinylated antigen to generate a low-density surface for subsequent kinetic characterization (approx. 60-100 RU antigen loaded). […] After injecting the last and highest analyte concentration, a long dissociation phase was recorded. […] A blank injection of assay buffer (HBS-EP+) following the same injection pattern as described above was recorded and subtracted from specific sensorgrams during analysis (double referencing). At the end of each cycle, the sensor was regenerated with one 120 s injection of 6 M guanidine hydrochloride in 250 mM NaOH, which completely removed capture reagent with loaded biotinylated antigen and bound Fab fragments. The obtained sensorgrams were fitted to a monovalent binding model using Biacore Insight Evaluation Software. The obtained values for rate constants kₒₙ and koff were used to calculate KD.
# [15] = molecular target: T6, cyIL-1RAP(1-367)_F-chLys_Avi; assay: SPR (Biacore), biotinylated antigen captured, FabCys-AviHis as analyte, 1:1 fit; comment: Koff approaching assay limit
# Method: as §5
# [16] = molecular target: T5, hIL-1RAP(1-367)_F-chLys_Avi; assay: ELISA binning; competitor: coated CAN04 FabCys-AviHis; 1.5 nM biotinylated human IL-1RAcP (AG-12210) pre-incubated with the titrated Fab; captured IL-1RAcP detected with streptavidin-AP
# Method: (§6) Epitope binning was performed using an ELISA-based competition assay. The experiments were performed using either IgG1f_AEASS or FabCys-AviHis. Antibodies were diluted to three (3) nM (for IgGs) or to 20 nM (in case of Fabs) in PBS. […] The next day 90 μL/well blocking solution (5% BSA in PBS) was added to the plate followed by an incubation at RT for at least 1 h. During incubation, the competing antibodies, including reference and negative control antibodies, were diluted in assay buffer (1xPBS, 0.5% BSA, 0.02% Tween). […] Following the incubation of the blocking solution, the ELISA plates were washed 3× with PBST. Subsequently, 20 μl/well of the prepared antibody/antigen solution was transferred to the wells and incubated for 30 min with gentle agitation. Subsequently, plates were washed 3× using PBS-T.
# (§7) For detection 20 μl of a prepared streptavidin-alkaline phosphatase conjugate solution was added to the wells in order to detect bound biotinylated human IL-1RAcP. Incubation happened for 30 min with gentle agitation. Following the incubation with streptavidin-alkaline phosphatase conjugate, assay plates were washed 5× with PBS-T. Then 20 μl of AttoPhos substrate (diluted 1:5 in H₂O) was added to the wells. Plates were incubated for 10 min at RT and readout happened using a Tecan M1000 Pro Reader.
# (§8) Every graph represents an individual first antibody in the FabCys-AviHis format coated on the surface. […] Subsequently, preformed antigen antibody complex was added to the respective wells with the surface coated first antibody. Detection happened via the biotin of IL-1RAcP using a streptavidin-alkaline phosphatase conjugate.
# [17] = molecular target: T6, cyIL-1RAP(1-367)_F-chLys_Avi; assay: SPR (Biacore), biotinylated antigen captured, FabCys-AviHis as analyte, 1:1 fit; comment: Koff at assay limit
# Method: as §5
# [18] = molecular target: T5, hIL-1RAP(1-367)_F-chLys_Avi; assay: ELISA binning; competitor: coated Y024148 FabCys-AviHis; 1.5 nM biotinylated human IL-1RAcP (AG-12210) pre-incubated with the titrated Fab; captured IL-1RAcP detected with streptavidin-AP
# Method: as §6
# For detection 20 μl of a prepared streptavidin-alkaline phosphatase conjugate solution was added to the wells in order to detect bound biotinylated human IL-1RAcP. Incubation happened for 30 min with gentle agitation. Following the incubation with streptavidin-alkaline phosphatase conjugate, assay plates were washed 5× with PBS-T. Then 20 μl of AttoPhos substrate (diluted 1:5 in H₂O) was added to the wells. Plates were incubated for 10 min at RT and readout happened using a Tecan M1000 Pro Reader. […]
# [19] = molecular target: T5, hIL-1RAP(1-367)_F-chLys_Avi; assay: ELISA binning; competitor: coated Y024149 FabCys-AviHis (sheet title Y024149_FAB COATED); 1.5 nM biotinylated human IL-1RAcP (AG-12210) pre-incubated with the titrated Fab; captured IL-1RAcP detected with streptavidin-AP
# Method: as §6, §7, §8
# [20] = molecular target: T5, hIL-1RAP(1-367)_F-chLys_Avi; assay: ELISA binning; competitor: coated Y024084 FabCys-AviHis (sheet title Y024084_FAB COATED); 1.5 nM biotinylated human IL-1RAcP (AG-12210) pre-incubated with the titrated Fab; captured IL-1RAcP detected with streptavidin-AP
# Method: as §6, §7, §8
# [21] = molecular target: T7, mouse (AG-12212) IL-1RAcP; assay: ELISA in Fc-capture mode of the IgGs, mouse IL-1RAcP (AG-12212), S/BG
# From the text: as §1
# human IL-1RAcP on cells [22] = molecular target: T3, human IL-1RAcP on cells; assay: FACS on Flp-In CHO cells over-expressing human IL-1RAcP, IgG1f_AEASS titrated 1e-12 to 2e-7 M, median FL2-H over background
# [23] = molecular target: T5, hIL-1RAP(1-367)_F-chLys_Avi; assay: ELISA on human IL-1RAcP (AG-12210), IgG1f_AEASS titrated 0.007-200 nM, AP-coupled secondary antibody with AttoPhos, signal over background (S/BG)
# From the text: as §1
# [24] = molecular target: T6, cyIL-1RAP(1-367)_F-chLys_Avi; assay: ELISA on cynomolgus IL-1RAcP (AG-12211), IgG1f_AEASS titrated 0.007-200 nM, AP-coupled secondary antibody with AttoPhos, signal over background (S/BG)
# From the text: as §1
"IC50, IFNγ release, PBMC stimulated with IL-1β (human IL-1RAcP on cells [5]) [nM]","IC50, IFNγ release, PBMC stimulated with IL-33 (human IL-1RAcP on cells [5]) [nM]","IC50, IL-8 release, HDFa stimulated with IL-1α (human IL-1RAcP on cells [5]) [nM]","IC50, IL-8 release, HDFa stimulated with IL-36α (human IL-1RAcP on cells [5]) [nM]","IC50, IL-8 release, HDFa stimulated with IL-36β (human IL-1RAcP on cells [5]) [nM]","IC50, IL-8 release, HDFa stimulated with IL-36γ (human IL-1RAcP on cells [5]) [nM]","IC50, IL-8 release, HEKa stimulated with IL-1β (human IL-1RAcP on cells [5]) [nM]","IC50, IL-8 release, HEKa stimulated with IL-36β (human IL-1RAcP on cells [5]) [nM]","IC50, IL-8 release, CyDFa stimulated with cynomolgus IL-1β [6] [nM]",Kd [8] [nM],Kd [9] [nM],binding result [11],binding result [12],EC50 (read off the curve) [13] [nM],Kd [14] [nM],IC50 (read off the curve) [16] [nM],Binder,further results
1.7,0.2,1.1,0.039,0.06,0.026,31,0.094,0.032,0.003,0.001,no binding (tested: 2e-7 M),no binding (tested: 2e-7 M),~5,,,"Y024149_h_IgG1f_AEASS (antibody, V domains shown, Human IgG1f with AEASS effector-silencing residues, kappa light chain) VH: EVQLVESGGGLVQPGGSLRLSCAASGGTFGGSAMHWVRQAPGKGLVWVSRILTYGGIATYAESVKGRFTISRDNAKNTLYLQMNSLRAEDTAVYYCARGSSEYPKFDIWGQGTLVTVSS VL: DIQMTQSPSTLSASVGDRVTITCRASQSISSWLAWYQQKPGKAPKLLIYDASSLESGVPSRFSGSGSGTEFTLTISSLQPEDFATYYCHQLLIYPHTFGQGTKVEIKR","binding result (recombinant rat IL-1RAcP): no binding; IC50, IL-6 release, human whole blood stimulated with 1 ng/ml rhIL-1β (human IL-1RAcP on cells [1]): ~10 nM; IC50, IL-6 release, human whole blood stimulated with 5 ng/ml rhIL-1β (human IL-1RAcP on cells [1]): ~8 nM; IC50, IL-6 release, human whole blood stimulated with 10 ng/ml rhIL-1β (human IL-1RAcP on cells [1]): ~20 nM; IC50, IFN-γ release, cynomolgus whole blood stimulated with 300 ng/ml rcIL-33 [2]: ~15 nM; IC50, IL-6 release, cynomolgus whole blood stimulated with 50 ng/ml rcIL-1β [2]: ~50 nM; IC50, IL-6 release, cynomolgus whole blood stimulated with IL-1β [2]: ~70 nM; fold stronger KD than reference R001031 (CAN04) [3]: ~7 fold; fold stronger KD than reference R001032 (1A05) [3]: ~3.5 fold; fold stronger KD than reference R001031 (CAN04) [4]: ~16 fold; fold stronger KD than reference R001032 (1A05) [4]: ~15 fold; binding result [7]: no binding; EC50 (human IL-1RAcP on cells [10]): 1.48 nM"
,,,,,,,,,,,,,,0.018,~1,"Y024148_h_FabCys-AviH (Fab, V domains shown, Disulphide-linked Fab with Avi and His tags; also called Y024148 in FabCys-AviHis format) VH: EVQLVESGGGLVQPGGSLRLSCAASGGTIGGSAVHWVRQAPGKGLVWVSRILTYSSTTQYAESVKGRFTISRDNAKNTLYLQMNSLRAEDTAVYYCARGSSEYPKFDIWGQGTLVTVSS VL: DIQMTQSPSTLSASVGDRVTITCRASQSISSWLAWYQQKPGKAPKLLIYDASSLESGVPSRFSGSGSGTEFTLTISSLQPEDFATYYCHQLLIYPHTFGQGTKVEIKR",Kd [15]: 0.008 nM
,,,,,,,,,,,,,,0.025,~1,"Y024149_h_FabCys-AviH (Fab, V domains shown, Disulphide-linked Fab with Avi and His tags; also called Y024149 in FabCys-AviHis format) VH: EVQLVESGGGLVQPGGSLRLSCAASGGTFGGSAMHWVRQAPGKGLVWVSRILTYGGIATYAESVKGRFTISRDNAKNTLYLQMNSLRAEDTAVYYCARGSSEYPKFDIWGQGTLVTVSS VL: DIQMTQSPSTLSASVGDRVTITCRASQSISSWLAWYQQKPGKAPKLLIYDASSLESGVPSRFSGSGSGTEFTLTISSLQPEDFATYYCHQLLIYPHTFGQGTKVEIKR",Kd [17]: 0.006 nM; IC50 (read off the curve) [18]: ~0.7 nM; IC50 (read off the curve) [19]: ~0.7 nM; IC50 (read off the curve) [20]: ~0.7 nM
5,1.8,24,0.05,0.15,0.067,162,0.12,0.48,0.011,0.015,no binding (tested: 2e-7 M),no binding (tested: 2e-7 M),~4,,,"R001032 (1A05) (antibody, human IgG1, kappa, V domains shown, Rabbit variable domains of prior art 1A05 on human IgG1 kappa constant regions with AEASS; also called P013.S.01.B.A05) VH: LEQSGGGAEGGLVKPGGSLELCCKASGFSLSTSYWRCWVRQAPGKGLEWIGCIYAGSGDVTYYANWVNGRFTLSRDIDQSTGCLQLNSLTAADTAMYYCASGVGFGYFNLWGQGTLVTVSS VL: ALVMTQTPSPVSAAVGGTVTINCQASEDIYSNLAWFQQKPGQPPKLLIYDASTLASGVPSRFSGSGSGTEFTLTISGLQSDDAATYYCLGVYTHISADNAFGGGTEVVVKR",binding result [21]: no binding (tested: 200 nM); EC50 (read off the curve) (human IL-1RAcP on cells [22]): ~2 nM; EC50 (read off the curve) [23]: 0.1 to 0.2 nM; EC50 (read off the curve) [24]: 0.1 to 0.2 nM
